Results reported in a protein production outcome set (Wang et al. 2014).

Experiment: label from the status in PepcDB records

| Sequence | protein production |
| --- | --- |
| MRPVYFLSDFGLEDPYVAVVKAVLAERAPGPAVVDLAHALPPQDLRRAAYALFEALPYLPEGAVVLAVVDPGVGTARRAVAALGRWTYVGPDNGLFTLAWLLDPPRRAFLLEPPRPRPKAALPGWAPGEATFHGRDVFAPAAAHLALGLPPEGLGPEVPVETLARLPLALTEGPEGEVLTFDRFGNAITTLLRAPVGGFVEVGGRRVPVRRTFGEVPEGAPVAYLGSAGLLEVAVNRGSAREALGLKEGMPVRLL | not failed |
| MAISVIMSVYNERPEQVQQAVDSILKQTYLPREFVIVLDNPERSDLKDLLMDYDCRVEMIKLVCNPENLGLAASLNKAIELASSELIARMDADDISVTNRLEVELEALKTRDLDLISGNITYLDEQDEVVGEKSAIPEAEPLIQKILPYGSTIIHPTVLMRKTAVQQVGGYRLLPTAEDYDLWLRLLANGFKIGSINRRVLNYRLRGNSMTSDAWKTYLVSRYIQQLYAERKRTGADSFGRGMSALTDKINDVRAQSTFNRGQKYFTMAMASMRKRKLGQALAALVRAMVTSPDNCYYVINYLRLRTIWSVNGRRYRQQPSD | failed |
| MGITDGVVVDLGGGTTGISILEKGKVIFVADEPTGGTHMTLVLAGSYGIDFETAEDIKTDKKKEKEVFVQITPVLQKMAAIVKKYIKDYKVKDVFLVGGACSFDGSESIFERELGLNIYKLEHHHHHH | failed |
| MMELHDLAEDLPSKWTEIMAVAEKAFRAFAELDAVKRELAESENAQ | not failed |
| AISPNRASHTLADIRNQLSTRILILDGAMGTMIQGYKLEEADYRGERFKDWHTDVKGNNDLLVLTQPHIIKQIHTDYLLAGADIIETNTFNATTIAMADYDMQSLSAEINREGARLAREACDAIEQATGKPRYVAGVLGPTNRTCSISPDVNDPGFRNIHFDELVTAYCESTRALIEGGADIIMVETIFDTLNAKAALFAIETVFDELFGANSPARLPVMISGTITDASGRTLTGQTTEAFYNSLRHIKPLSIGLNCALGPKELRPYVEELSRIAECYVSAHPNAGLPNEFGGYDETPEDMAKVIQEWAREGMLNIIGGCCGSTPEHIKVIREAVEQFAPRVLPEIPVACRLAGLEPLTIDAQTLFVNVGERTNVTGSAKF | failed |
| MRLKKQLLGSLLVVIVVLSIAVATTKQQKGFVTGQPTGALNLSDILDSEELGEYHLMSAAIITGNTVDFSGLGAGPDDPFEIASITKIFTGELLRLQIERGEITESTAVGDVLGERVADSLIRDITVEELANHTSGLPRLGNVGLRPFMATFFDKNPYKDLSADRVISISTTSKLNSRGEFHYSNLGFALLGQVLARNAGLTFDQLLDRDLLAPLNLNNTKLMTPESLAQDAPQGFSTPGKQVEAWEMDGFLPAAGLRSTARDMAVFCQYLFTKGPAPFTWQSLESAPEIVWHNGESFGYSSVLFFNTATTTAIFVAADVATSVFPIGHELLMANSTRQESK | failed |
| DPQFHREGDDIVVEREIKFTDAALGASLDVPTLEGTKRVKVPAGIQSGTKIRLKGLGFPHMGKTAKGDLYVHINVSVPRSLSADQKAILEKLREAGL | failed |
| MIKISVIIPIYNAENYIEKAFSSLKNQTLAQNEFEILCIDDKSTDNSLGKLKQLSKIHKNMRIINLHKNSGGPMIPRNKGIKEAKGKYIIFLDNDDYLGEEALERLFIQAEKNQSEVIFGKYVGINGRGVPQSQFKKGNRNEADILADNLVYTLAPHKMFQTAFLKTKKIYFDPNILIGEDQYFVMKAYVNAKVITVLADYDYYYVVSRGDENLSIKESKMDPREICKVVPAVVKEIEASPLHPTYKKTLIRAYIQRYFNDYITGNYNLDYKNMSERQKTFVQVMKDTIVCHLDEKMKNELPTKTRFMIDIIAENNPEKLIDVRMQMENFSKNQVVKVENGYIKGRFRKMRPQLAYDDVYDINHLNSSKVQLHSVTLQNNNYLLDISLEQSLLTRFQTALRLCLKERDGNLEIWISPLKMLSTERGIYAVDSTLFNHTCIWDLFIESEINGFKNRKRVGKDRDFEEIVSSNNTPLLIQNNSYQIKAYFTTPFSNLSFQIISE | failed |
| MDFNDSAQAIILNVGGEKNINSLIHCSTRLRFTLNDFAKADLEKLKTVDGVLGAVIAGGQCQVIIGNDVVEMFDAVQALLGNSTQQNTARGPKQSWGKVVLDFIIGVFQPLVPAIAGGGILKAVLMLLAMFGWISDKSQTYQILNLVGGAPLYLLPILVAITTAQKLKVNPLVAVSTVGVLILPDLVAMLTKGTTLFGLHVTNVTYSSQVFPAILCVLFYALMERFFTKYSPKPIRIFFVPMMSMLITAPITLLFLGPLGYVVGEGFVSVILFLNTHLGWVATALLAGVLPFMVATGMHKPMIPYVVSTFSTVGKESLYLPASLAHNISESGTCFAITLRTKDTKLRAVALSAGISALFGITEPALYGVTLQHKRALISVITGGVIGGAYVGIAGLSGFTIVGPGLASLPMFVDKSNPANLIHALIGFGISFVVSFVIGLIIWKNDEEISSASDTGEATTTVVAEDLMAPVAGKILSLADVPDDVFSQGLIGQGIAVEPSEGSLIAPTDGTIEMVYETKHALGMRTDNGAELLFHIGLDTVQLNGKYFESHVQVGQHVQAGELLETFDVAKIKAAGYNPITMMVVTNQDSYTVAVDESNETLDNQSVMNIAKLGV | failed |
| MRTDNINHWDVVAETYSEENNRGRNFHSQIYLAAVNELLGNVKGKCVLDAGCGDGFFSLELAQKGALVTAVDSSEAMLSIAKHKHVHDNLQYYNMDLTRELTFEDKFFDIVVANMLLMDIPEIELLIFEIARVLKKPGTFIFSITHPCFFLSDWEENENNIKTYKKIGNYLEERVEELNFWGKTLHYHRPLSRYMEAVEKAGMYVSSLREPVPPRELIELYPEQEYHCRIPSFVVIMAQMV | failed |
| MKVTSVGAAMLLLIVGNLIAVLSDSLIKSVANEVPMFQFVFFRQISAVMFLLPVCLLAKQTNFMEGFKWHAVRAHVWLLGAVFMVMAISSLPLATANAIFYAAPLIMLPLAAIFFGEQLSKQSVAAAVMGFAGVLVIIRPDQIDWAAISAFVVALTLAINNLLIRKLPKNQSVMQTLLMTNLAGIPVALLLVLIEDQPWQWGAFPVAAGSSLFIMIYAATCVLAYRSIDSNKIASAEYSGLIGAVVVGFIWFGEIPDIFMAIGTVMIVVPLIWLSKRERRKQKEHAQLQAQKEHEQQQAHVA | failed |
| MIFALHIMLRFVPNIVPLSIINKKTMTRIGLLSDTHAFWDDKYLKYFENCDEIWHAGDIGSVEVARKLSAFRPFRAVYGNIDGQDIRRLYPQTNRFTVDGAEVLIKHIGGYPGNYDPSIRGSLLVKPPQLFISGHSHILKVKYDKTLDMLHINPGAAGISGFHKVRTLVRFCIDNGEFKDLEVIELADKL | failed |
| MSKTANFLSLRSNPLPPIFSSTGNSPFLRASSALNLPTTASKPFHSWIRASSRRRLVLGGFGGASLWMNNNMSGKFGGKSFIASARQTNPSPVEQALNKVDWPETFPFKEEDFQRYDESSDSTFYEAPRFVTHIDDPAIAALTKYYSKVLPQSDTPGVSILDMCSSWVSHYPPGYRQERIVGMGMNEEELKRNPVLTEYIVQDLNLNSNLPFEDNSFQVITNVVSVDYLTKPLEVFKEMNRILKPGGLALMSFSNRCFFTKAISIWTSTGDADHALIVGSYFHYAGGFEAPQAVDISPNPGRSDPMYVVYSRKLPMV | failed |
| MSEQQHVRADGTVTFLPHRLNRHPVVVRGLTADELWICCGLSGAAGLLVGAPLSWVFRTIAIAPTFVVLGVALGVFIGGGILRRLKRGRPDTWLYRQLQWRIATGHPLMAGWVGGHVLISRSGFWSTRRSMR | failed |
| MTKTFKTLDDFLGTHFIYTYDNGWEYEWYAKNDHTVDYRIHGGMVAGRWVTDQKADIVMLTEGIYKISWTEPTGTDVALDFMPNEKKLHGTIFFPKWVEEHPEITVTYQNEHIDLMEQSREKYATYPKLVVPEFANITYMGDAGQNNEDVISEAPYKEMPNDIRNGKYFDQNYHRLNK | not failed |
| MNIAISGASGFIGKHLTEYLTEAGHRVVPLGRPMFREGTSGHLIQALSHCDVIINLAGAPIGKRWTPEYKKELYDSRIKVTHCIIRAMDAVKTKPRLMISASAVGYYPEEGTFDEYTNTRGSGFLAELCYAWEKEARRCPSQTRLVITRFGIVLSPDGGAMEQMLRPLRITRVAGVIGPGTQPFPWIAIQDLCRAMEFIIRHEEASGVFNLVAPQQVSQYAFTQAMAARYHAWMKVVVPRWFFRMRYGEAASFLASGQNVRPTRLLEAGFRFAKPTIEDFFEGTDHAVVDRLDLHRYMGTWYEIARFDHRFERGLSEVTATYTLMPDGTVRVENRGCKHKKPYDVCKTAEGRAKIPDPSQPGKLKVSFFLSFYSDYYVLELDQDEYNYALIGSSSDKYLWILSRAPILPEEIKKKLLDAATRRGYDVKKLIWVEQREKKIM | failed |
| MTKPSRPDAPGDGRPRRLPGVARCRRDAAGHPPAHRLRWLQLLIWLVPMLAALVSIGLVAGQVRGHGPAITLGFQDGEGIEPGKTPVRYNDVDIGMVTAVRLSTDLSRVLVTVQLNQEAADFATHGTRFWIVRPRAGMSGASGLGTLLSGTYIGADSGGSHEPETQFTGLENPPVVSLRQQGARFVLRGPSLGSVETGSPVYYRHVEVGQVTGTALDKDGAGVTIDVFIEAPYHRYVGRDTQWRHASGLGLRLDAAGLRVNAESFQTMLLGGIAFQPSPGQPAGDAVPDGTVFGLQSGDLDAADGPDGKPSTVVMHFDQSLHGLSVGAAVDFRGVQLGEVTNVGVAFDPKTHTFVMPVTLNLYPDRLGQAFRASSEYGDAAAGKALLRTLVARGLRGQLRTGNLLTNQLYVALDMFPNAPPVQLDLNGTLIALPTIPNTLDDLQAQVADLAKTLDRVPLDQLGTHLGQRLDNARRLFALTDAQLAPQARATLAAARQAFDAAQAIAQSPLLRPADLSRVREQLGQTLRALDTLTDTVAQHPESLVWGPAVDTRTAQSP | failed |
| MANVSMEAKGLLILGFPIAATMIAQTLMSLTDLMLVSRLGEKQVAGVSLGIAVYSFGMLFGLGVITAVTPMIAKAYGRKDFNAVSNYTRQGLWVAALVAMPGVIALILTRSILLFLNVEAETANIASDYCVGALMGLPAFLIYVNLRCFLSAIGRPKTTTWIMFLAVPVNYIIGHVLIFGVMDAEGLGITGAGLASSVTRLAILSTVIATLKYGADFKCFSLFENVMNVKPVVVKKIVLLGLPVGVRILLAEGMLPIIALLISTLGTIDLVAHMVAVRLSGVSAVIALGFSSAASTRVAWQVAANNQNGVRVTGYVASALAFGVSALLAMLLIFFPTELVMLLFDIDDAEVLALTSHLLKVVAAYQILNAIQTAVVGSLLGVSDTKIPTCLVLIGNWLVGLASAYGLVVLFEATVTAVWGGLVLGQVFVVVTCLCRFHMKTKALHE | failed |
| GDGEEYTFWDPEYAGLQNGLKAVLPNAHNYITQFSANERRYIVYSTSSTQPGTYYFGDRDEKVLFPIAERYSQLSTEQLADTQYLSYEARDKLKIDAYLTVPKGFKAKHLPTIIFPHGGPISYDSNDFDYWAQFFANRGYAVFRMNFRGSAGYGYEFMKAGLKSWGLEMQNDVEDGTRYLINQGISDPQRICIVGASYGGYAALMGAAMTPDLYRCAVSVAGVTDVANLVRSSRRFTNYEVVKEQIGDDFNVLYERSPISKADKITIPVLLLHGDKDRVVKVQHSREMFDELKSRKKNVEYIELENGGHYLSNNDHRLTTFKALDKFLADNLK | failed |
| MVSRQEGTLYSRKRDFTVCGEEFHNSFKKSKQEDQSQSTLFNERPKSESMRSITFDFELHLHTPLPSDWQTKMSLDLELNLSPSGSPSRTTTKKYESSSIHNETVSSSKIKVLTNTSKKSIIGTGLSRSPSWLAFEGGDDNDVDHKGQEMVTTVCMKCHMLVMLCTSTPVCPNCKFMHPHDHSSTKLFKPSNLLRLLC | failed |
| VPKIVDHDERRRALADAVLALIAREGISAVTTRAVAEESGWSTGVLNHYFGSRHELLLAALRRAGDIQGDRYRTILDEEGAGPIEKLRNITASILPLDERRLAMTRVFLFFYAEGAAEETARGEIAAFLARWRGVVRESVVAAQREGTVSTDLDADAVTVALVALTDGLALQAILDPVVMKAISAEDAAARCVDAAVRRTTEEAGAVGR | not failed |
| VGFAPELYCGLENCYDVLEVNREEFDKQKLAKAYRALARKHHPDRVKNKEEKLLAEERFRVIATAYETLKDDEAKTNYDYYLDHPDQRFYNYYQY | not failed |
